Experimental data as given in patent publication US20090214603A1 (UNIVERSITY OF LOUISVILLE RESEARCH FOUNDATION, published 2009).

Columns and labels:
Assay in all cases: cell-based or functional assay
[1] = molecular target: recombinant Mfa1 protein (rMfa1), full-length Mfa1 of P. gingivalis 33277 with a C-terminal penta-histidine tag (Porphyromonas gingivalis) (UniProt B2RHG1)
[2] = molecular target: minor fimbrial antigen Mfa1 of Porphyromonas gingivalis, on intact P. gingivalis ATCC 33277 cells (Porphyromonas gingivalis) (UniProt B2RHG1)
[3] = molecular target: T1, minor fimbrial antigen Mfa1 of Porphyromonas gingivalis, on intact P. gingivalis ATCC 33277 cells (Porphyromonas gingivalis, UniProt B2RHG1 50-563)
T1 sequence: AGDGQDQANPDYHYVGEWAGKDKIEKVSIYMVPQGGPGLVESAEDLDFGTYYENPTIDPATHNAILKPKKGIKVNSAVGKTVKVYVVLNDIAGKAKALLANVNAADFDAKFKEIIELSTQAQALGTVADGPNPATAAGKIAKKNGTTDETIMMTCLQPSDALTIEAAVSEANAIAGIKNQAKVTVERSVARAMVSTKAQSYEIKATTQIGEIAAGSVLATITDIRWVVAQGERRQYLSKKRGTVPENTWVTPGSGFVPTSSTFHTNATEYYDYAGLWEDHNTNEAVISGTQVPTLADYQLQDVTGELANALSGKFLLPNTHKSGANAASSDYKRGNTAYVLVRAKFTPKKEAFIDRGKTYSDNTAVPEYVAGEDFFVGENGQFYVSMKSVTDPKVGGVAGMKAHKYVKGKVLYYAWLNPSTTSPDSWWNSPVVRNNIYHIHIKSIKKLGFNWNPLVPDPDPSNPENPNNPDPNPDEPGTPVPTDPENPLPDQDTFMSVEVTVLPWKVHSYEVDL

Chain of recombinant Mfa1 protein (rMfa1), full-length Mfa1 of P. gingivalis 33277 with a C-terminal penta-histidine tag (Porphyromonas gingivalis) (B2RHG1 20-563, tags left off): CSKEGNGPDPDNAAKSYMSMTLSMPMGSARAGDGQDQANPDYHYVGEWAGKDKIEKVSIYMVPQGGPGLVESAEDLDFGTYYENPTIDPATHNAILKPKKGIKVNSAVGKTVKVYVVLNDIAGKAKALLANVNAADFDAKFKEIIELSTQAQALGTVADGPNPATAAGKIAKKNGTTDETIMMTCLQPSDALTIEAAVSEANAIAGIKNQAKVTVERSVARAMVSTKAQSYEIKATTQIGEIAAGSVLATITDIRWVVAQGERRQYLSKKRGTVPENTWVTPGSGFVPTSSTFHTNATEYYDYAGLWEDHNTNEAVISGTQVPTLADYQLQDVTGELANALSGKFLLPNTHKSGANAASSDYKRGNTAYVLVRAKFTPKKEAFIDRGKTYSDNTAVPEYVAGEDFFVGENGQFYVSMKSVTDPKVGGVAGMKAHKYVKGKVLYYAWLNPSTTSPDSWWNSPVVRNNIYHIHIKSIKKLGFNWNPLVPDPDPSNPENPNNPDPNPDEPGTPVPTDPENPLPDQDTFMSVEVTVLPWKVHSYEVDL

For “BAR peptide (SspB Adherence Region), synthetic peptide comprising residues 1167 to 1193 of the SspB (antigen I/II) protein of S. gordonii”, the relative density (R.D.) of remaining BAR peptide after 5 minutes with P. gingivalis SMF1 and rMfa1 (relative density) [1] was 47.3 and the relative density (R.D.) of remaining BAR peptide after 30 minutes with P. gingivalis SMF1 and rMfa1 (relative density) [1] was 8.2.

For “BAR-II, derivative of the BAR peptide containing the Arg/Asn1182 and Ile/Val1185 substitutions”, the I50 of inhibition of P. gingivalis adherence and biofilm formation [2] was 0.52 µM, the fold difference of I50 against BAR [2] was 2.5 fold and the inhibition of adherence and formation of P. gingivalis microcolonies on the streptococcal substrate at 0.34 µM peptide [2] was 25%. For the same molecule, the inhibition of adherence and formation of P. gingivalis microcolonies on the streptococcal substrate at 0.85 µM peptide [2] was 82%.

“BAR-III, cyclic conformationally constrained disulfide bridged BAR peptide with Cys substituted for Leu1177 and Leu1191” was tested, and the specific activity of biofilm inhibition against BAR (fold less than BAR) [2] was 13.

For “BAR-X, BAR analog in which the internal variable residues in VXXLL were altered to Pro and Gly (VPGLL) (peptide)”, the inhibition of biofilm formation at 3.38 µM peptide [2] was 15%.

With “BAR-XI, BAR analog in which the positively charged Lys residues flanking VXXLL were altered to Asp (peptide)” the inhibition of biofilm formation [2] was 40%.

In the case of LEAAPKKVQDLLKKANITVKGAFQLFS, the “% inhibition of microcolony formation relative to 0 µM, 0.169 µM BAR, with pepstatin A” value [3] is reported as 19.9%, the “% inhibition of microcolony formation relative to 0 µM, 0.169 µM BAR, without pepstatin A” value [3] is reported as 4.99% and the “% inhibition of microcolony formation relative to 0 µM, 0.338 µM BAR, with pepstatin A” value [3] is reported as 44.6%. For the same molecule, the “% inhibition of microcolony formation relative to 0 µM, 0.338 µM BAR, without pepstatin A” value [3] was 18.6%, the “% inhibition of microcolony formation relative to 0 µM, 0.845 µM BAR, with pepstatin A” value [3] was 67.7% and the “% inhibition of microcolony formation relative to 0 µM, 0.845 µM BAR, without pepstatin A” value [3] was 42.5%. The “% inhibition of microcolony formation relative to 0 µM, 1.65 µM BAR, with pepstatin A” value [3] was 97.8% and the “% inhibition of microcolony formation relative to 0 µM, 1.65 µM BAR, without pepstatin A” value [3] was 93.4%.
